The text below walks through data of patent US20190241654A1 (published 2019).

B1: Ab356/Ab1120 (HC Ab356, LC Ab1120) anti-CD47 antibody (antibody, V domains shown)
VH: QMQLVQSGAEVKKPGSSVKVSCKASGFNIKDYYLHWVRQAPGKGLEWMGWIDPDQGDTEYAQKFQGRVTITRDRSTSTAYMELRSLRAEDTAVYYCNAAYGSSSYPMDYWGQGTTVTVSS
VL: NIQMTQSPSSLSASVGDRVTITCRASQDIHRYLSWFQQKPGKVPKHLIYRYVRFVDGVPSRFSGSGSGTEFTLTISSLQPEDFATYYCLQYDEFPYTFGGGTKVEIK
notes: FR and CDR L2 variant of AbParental
B2: Ab356/Ab1129 (HC Ab356, LC Ab1129) anti-CD47 antibody (antibody, V domains shown)
VH: B1 VH
VL: B1 VL with Y51H, V52I
notes: FR and CDR L2 variant of AbParental; The label order is HC/LC although the head says 'LC/HC'; r466 is used
B3: Ab480/Ab1122 (HC Ab480, LC Ab1122) anti-CD47 antibody (antibody, V domains shown)
VH: B1 VH with T115L
VL: B1 VL with V52E
notes: FR and CDR L2 variant of AbParental; The label order is HC/LC although the head says 'LC/HC'; r445 is used
B4: Ab356/Ab1121 (HC Ab356, LC Ab1121) anti-CD47 antibody (antibody, V domains shown)
VH: B1 VH
VL: B1 VL with V52I
notes: FR and CDR L2 variant of AbParental; The label order is HC/LC although the head says 'LC/HC'; the row in running number order (r442) is used
B5: Ab356/Ab1122 (HC Ab356, LC Ab1122) anti-CD47 antibody (antibody, V domains shown)
VH: B1 VH
VL: B1 VL with V52E
notes: as for B3
B6: Ab356/Ab1127 (HC Ab356, LC Ab1127) anti-CD47 antibody (antibody, V domains shown)
VH: B1 VH
VL: B1 VL with Y51E, V52S
notes: FR and CDR L2 variant of AbParental; The label order is HC/LC although the head says 'LC/HC'; r460 is used
B7: Ab480/Ab1120 (HC Ab480, LC Ab1120) anti-CD47 antibody (antibody, V domains shown)
VH: B1 VH with T115L
VL: B1 VL
notes: as for B1
B8: Ab480/Ab1127 (HC Ab480, LC Ab1127) anti-CD47 antibody (antibody, V domains shown)
VH: B1 VH with T115L
VL: B1 VL with Y51E, V52S
notes: as for B6
B9: Ab480/Ab1121 (HC Ab480, LC Ab1121) anti-CD47 antibody (antibody, V domains shown)
VH: B1 VH with T115L
VL: B1 VL with V52I
notes: FR and CDR L2 variant of AbParental; The label order is HC/LC although the head says 'LC/HC'; r442 is used
B10: AbParental (parental anti-CD47 antibody) (antibody, human IgG4 S228P, kappa, V domains shown)
VH: B1 VH with P14T, K43Q, G44A, G66D, T76M, R84S, A88S, V93M
VL: NIQMTQSPSAMSASVGDRVTITCKASQDIHRYLSWFQQKPGKVPKHLIYRANRLVSGVPSRFSGSGSGTEFTLTISSLQPEDFATYYCLQYDEFPYTFGGGTKVEIKR
notes: also called Parental LC-HC; parental antibody
B11: Ab1119/Ab480 (antibody, V domains shown)
VH: B1 VH with T115L
VL: B1 VL with Y51A, V52N, F54L, D56S
notes: Variant of AbParental; also called LC Ab1119 / HC Ab480
B12: Ab480/Ab1121 (antibody, V domains shown)
VH: B1 VH with T115L
VL: B1 VL with V52I
notes: FR and CDR L2 variant; Label printed HC first; r442 used; also called HC Ab480 / LC Ab1121
B13: Ab356/Ab1127 (antibody, V domains shown)
VH: B1 VH
VL: B1 VL with Y51E, V52S
notes: FR and CDR L2 variant; Label printed HC first; r460 used; also called HC Ab356 / LC Ab1127
B14: Ab480/Ab1120 (antibody, V domains shown)
VH: B1 VH with T115L
VL: B1 VL
notes: FR and CDR L2 variant; Label printed HC first although the head says LC/HC; also called HC Ab480 / LC Ab1120
B15: Ab1119/Ab387 (antibody, V domains shown)
VH: B1 VH with A88S, T115L
VL: B1 VL with Y51A, V52N, F54L, D56S
notes: Variant of AbParental; also called LC Ab1119 / HC Ab387
B16: Ab356/Ab1121 (antibody, V domains shown)
VH: B1 VH
VL: B1 VL with V52I
notes: FR and CDR L2 variant; Label printed HC first; the entry in numeric order (r442) is used; also called HC Ab356 / LC Ab1121
B17: Ab480/Ab1127 (antibody, V domains shown)
VH: B1 VH with T115L
VL: B1 VL with Y51E, V52S
notes: FR and CDR L2 variant; Label printed HC first; r460 used; also called HC Ab480 / LC Ab1127
B18: Ab495/Ab356 (antibody, V domains shown)
VH: B1 VH
VL: B1 VL with R24K, F36Y, V43A, Y51A, V52N, F54L, D56S
notes: also called LC Ab495 / HC Ab356
B19: Ab356/Ab1120 (antibody, V domains shown)
VH: B1 VH
VL: B1 VL
notes: FR and CDR L2 variant; also called HC Ab356 / LC Ab1120
B20: Ab495/Ab480 (antibody, V domains shown)
VH: B1 VH with T115L
VL: B1 VL with R24K, F36Y, V43A, Y51A, V52N, F54L, D56S
notes: also called LC Ab495 / HC Ab480
B21: Ab1119/Ab356 (antibody, V domains shown)
VH: B1 VH
VL: B1 VL with Y51A, V52N, F54L, D56S
notes: Variant of AbParental; also called LC Ab1119 / HC Ab356
B22: Ab356/Ab1122 (antibody, V domains shown)
VH: B1 VH
VL: B1 VL with V52E
notes: FR and CDR L2 variant; Label printed HC first; r445 used; also called HC Ab356 / LC Ab1122
B23: Ab480/Ab1122 (antibody, V domains shown)
VH: B1 VH with T115L
VL: B1 VL with V52E
notes: FR and CDR L2 variant; Label printed HC first; r445 used; also called HC Ab480 / LC Ab1122
B24: Ab1119/Ab170 (antibody, V domains shown)
VH: B1 VH with A88S
VL: B1 VL with Y51A, V52N, F54L, D56S
notes: Variant of AbParental; also called LC Ab1119 / HC Ab170
B25: Ab482/Ab387 (antibody, V domains shown)
VH: B1 VH with A88S, T115L
VL: B1 VL with L11M, R24K, Y51A, V52N, F54L, D56S
notes: FR variant of AbParental; also called LC Ab482 / HC Ab387

Positions count from the first letter of the chain named. “And” between values parts separate entries of the source, which are not always exact repeats. Equal entries are not always repeated.

T1 sequence (Q08722 19-323): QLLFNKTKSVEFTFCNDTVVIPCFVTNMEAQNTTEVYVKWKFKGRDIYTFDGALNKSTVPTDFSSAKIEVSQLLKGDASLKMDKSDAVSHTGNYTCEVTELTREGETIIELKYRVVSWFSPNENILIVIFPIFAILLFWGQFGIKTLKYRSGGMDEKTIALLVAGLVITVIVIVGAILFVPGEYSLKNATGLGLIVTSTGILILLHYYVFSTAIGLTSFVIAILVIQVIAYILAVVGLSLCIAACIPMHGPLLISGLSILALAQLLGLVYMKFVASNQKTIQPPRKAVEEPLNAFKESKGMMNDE

One assay has as its target T1, CD47 on CCRF-CEM cells (human, UniProt Q08722 19-323). Description: cell-based or functional assay.
In the case of B1, the “Phagocytosis EC50 (ug/mL), Donor 1” value came out at 0.68 µg/mL and the “Phagocytosis EC50 (ug/mL), Donor 2” value turned out to be 1.82 µg/mL.
For the molecule B2, the “Phagocytosis EC50 (ug/mL), Donor 1” value was 12.8 µg/mL.
Regarding B3, the “Phagocytosis EC50 (ug/mL), Donor 1” value was 1.1 µg/mL and the “Phagocytosis EC50 (ug/mL), Donor 2” value came out at 1.84 µg/mL.
Taken in the same sequence, the figures for B4 were 0.48 µg/mL and 1.29 µg/mL.
Taken in the same sequence, the figures for B5 were 1.07 µg/mL and 1.83 µg/mL.
On to B6, for which the “Phagocytosis EC50 (ug/mL), Donor 1” value stood at 0.66 µg/mL and the “Phagocytosis EC50 (ug/mL), Donor 2” value stood at 0.96 µg/mL.
For B7, the “Phagocytosis EC50 (ug/mL), Donor 1” value came to 0.73 µg/mL and the “Phagocytosis EC50 (ug/mL), Donor 2” value came to 2.01 µg/mL.
As for B8, the “Phagocytosis EC50 (ug/mL), Donor 1” value stood at 1.88 µg/mL and the “Phagocytosis EC50 (ug/mL), Donor 2” value was 1.95 µg/mL.
B9: the “Phagocytosis EC50 (ug/mL), Donor 1” value stood at 0.43 µg/mL and the “Phagocytosis EC50 (ug/mL), Donor 2” value amounted to 1.42 µg/mL.

A further assay deals with T2, recombinant extracellular domain of CD47 (UniProt Q08722 19-139, limits assumed).
T2 construct: extracellular domain; Analyte flowed over the captured antibodies in SPR; also called CD47-ECD
T2 sequence (Q08722 19-139 limits assumed): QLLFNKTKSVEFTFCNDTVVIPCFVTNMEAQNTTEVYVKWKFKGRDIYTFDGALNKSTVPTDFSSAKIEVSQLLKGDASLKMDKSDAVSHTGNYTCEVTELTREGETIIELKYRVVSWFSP
The experiment in a line: SPR; antibody captured on anti-human Fc, CD47-ECD flowed 0-100 nM; 1:1 Langmuir. As to the method:
The binding kinetics of anti-CD47 antibodies to the recombinant extracellular domain of CD47 were determined by using surface Plasmon resonance (SPR, MASS-1, Sierra Sensors; T200, Biacore, GE Healthcare Life Sciences). Anti-human Fc (P/N: BR-1008-39 (GE Healthcare Life Sciences)) was immobilized on a High Capacity Amine chip (P/N: SPR-AS-HCA, Sierra sensors) or CM5-S Chip (GE Healthcare Life Sciences). CD47 antibodies were captured on Human IgG FC and CD47-ECD was flowed over the surface at various concentrations ranging from zero (for double referencing) to 100 nM. In order to determine KD's, antibodies were ranked using a 1:1 Langmuir model.
(In general: In SPR one partner is held on a chip, and binding of the other changes the refractive index at the surface.)
In general, Kd refers to the free concentration of one partner at which half of the binding sites on the other are occupied at equilibrium, for simple one-to-one binding. By koff is commonly meant the first-order rate constant of dissociation. In general, kon refers to the rate constant with which the complex forms. Regarding B10, the Kd stood at 0.236 nM, the koff came to 0.00187 s⁻¹ and the kon stood at 7.94e+06 M⁻¹ s⁻¹.
On to B11, for which the dissociation constant Kd amounted to 0.564 nM, the koff was found to be 0.00577 s⁻¹ and the kon was found to be 1.02e+07 M⁻¹ s⁻¹.
B12: the Kd stood at 1.14 nM, the koff amounted to 0.00303 s⁻¹ and the kon turned out to be 2.67e+06 M⁻¹ s⁻¹.
As for B13, the Kd came out at 4.76 nM, the dissociation rate constant (koff) was 0.0106 s⁻¹ and the kon was 2.22e+06 M⁻¹ s⁻¹.
Taken in the same sequence, the figures for B14 were 1.05 nM, 0.00238 s⁻¹ and 2.28e+06 M⁻¹ s⁻¹.
For the molecule B15, the Kd is 0.556 nM and 0.529 nM; the koff was 0.00571 s⁻¹ and 0.00552 s⁻¹; the kon was 1.03e+07 M⁻¹ s⁻¹ and 1.04e+07 M⁻¹ s⁻¹.
Turning to B16, the Kd came to 1.08 nM, the koff came out at 0.00272 s⁻¹ and the on-rate constant (kon) came to 2.53e+06 M⁻¹ s⁻¹.
Taken in the same sequence, the figures for B17 were 2.42 nM, 0.00622 s⁻¹ and 2.57e+06 M⁻¹ s⁻¹.
With B18, the Kd was 1.36 nM, the off-rate constant (koff) worked out at 0.00426 s⁻¹ and the kon came out at 3.13e+06 M⁻¹ s⁻¹.
Consider B19, for which the Kd was determined as 1.02 nM, the koff came out at 0.00274 s⁻¹ and the kon came out at 2.69e+06 M⁻¹ s⁻¹.
Take B20: the Kd is 1.32 nM, the koff turned out to be 0.00434 s⁻¹ and the kon was determined as 3.29e+06 M⁻¹ s⁻¹.
B21: the Kd was 0.635 nM and 0.599 nM; the koff was 0.00647 s⁻¹ and 0.0059 s⁻¹; the kon was 1.02e+07 M⁻¹ s⁻¹ and 9.85e+06 M⁻¹ s⁻¹.
Take B22: the Kd amounted to 77.9 nM, the koff was 0.00411 s⁻¹ and the kon was 22800 M⁻¹ s⁻¹.
Regarding B23, the Kd stood at 4.68 nM, the koff was determined as 0.0109 s⁻¹ and the kon was found to be 2.33e+06 M⁻¹ s⁻¹.
Regarding B24, the Kd is 0.562 nM, the koff was 0.00583 s⁻¹ and the kon was 1.04e+07 M⁻¹ s⁻¹.
Consider B25, for which the Kd amounted to 0.553 nM, the koff is 0.00549 s⁻¹ and the kon amounted to 9.93e+06 M⁻¹ s⁻¹.

A further assay deals with T1, CD47 on CCRF-CEM cells. Description: flow cytometry on antibody-opsonized CCRF-CEM cells, anti-human Alexa 647 secondary, median fluorescence, sigmoidal fit; Donor 1. As to the method:
(§1) Phagocytosis was assayed by serum starving the macrophages in incomplete AIM V media for two hours. During this incubation period, target cells (CCRF-CEM) from two donors (donor 1 and donor 2) were labeled with CSFE (Invitrogen, #C34554) at […] for 15 minutes at room temperature. Cells were rinsed twice with PBS (Hyclone, #SH30028.02) and resuspended at 8×10⁵/mL in AIM V media. Antibody dilutions were prepared at 0.01 ug/ml to 10 ug/ml in half log dilutions and then incubated with the target cell line for 10 minutes at room temperature (a small portion is retained for flow cytometric analysis/cell binding), after which 100 μL of target cell/antibody suspension was added to the macrophage plates. Samples were treated in triplicate and with appropriate isotype controls.
(§2) Samples were incubated for 30 minutes at room temperature, rinsed 2× and then resuspended in FACS buffer and analyzed on the Attune. The EC50 values refer to the concentration that gives half the maximum binding measured as median fluorescent intensity, and was determined by non-linear fit of a sigmoidal dose response within the GraphPad Prism software.
The EC50 is the concentration that produces a half-maximal response. A higher EC50 goes with lower potency in that assay. Regarding B1, the EC50 stood at 0.17 mg/L.
Molecule B2 registered an EC50 of 0.16 mg/L.
The same measure, in the same setting: with B3 the figure was 0.16 mg/L; with B4, 0.19 mg/L; with B5, 0.17 mg/L.
Same read-out and setting: for B6 the value was 0.11 mg/L; for B7, 0.33 mg/L.
The same measure, in the same setting: for B8 the value was 0.08 mg/L; for B9, 0.17 mg/L.

The target in the next assay is T1, CD47 on CCRF-CEM cells. The experiment in a line: flow cytometry on antibody-opsonized CCRF-CEM cells, anti-human Alexa 647 secondary, median fluorescence, sigmoidal fit; Donor 2. As to the method: as §1, §2
For orientation: A flow cytometer gives signals particle by particle.
As for B1, the half-maximal effective concentration (EC50) was determined as 0.16 mg/L.
As for B3, the EC50 worked out at 0.17 mg/L.
B4 returned an EC50 of 0.16 mg/L.
With B5, the response was half-maximal at 0.22 mg/L (EC50).
Same read-out and setting: with B6 the figure was 0.15 mg/L; with B7, 0.17 mg/L.
The molecule B8 yielded an EC50 of 0.2 mg/L.
Same read-out and setting: with B9 the figure was 0.17 mg/L.
